Values of other authors as cited in paper PMC3249237.

Biological target: LRP6 E1E2 (Homo sapiens) (UniProt O75581)
Sequence (O75581 20-630): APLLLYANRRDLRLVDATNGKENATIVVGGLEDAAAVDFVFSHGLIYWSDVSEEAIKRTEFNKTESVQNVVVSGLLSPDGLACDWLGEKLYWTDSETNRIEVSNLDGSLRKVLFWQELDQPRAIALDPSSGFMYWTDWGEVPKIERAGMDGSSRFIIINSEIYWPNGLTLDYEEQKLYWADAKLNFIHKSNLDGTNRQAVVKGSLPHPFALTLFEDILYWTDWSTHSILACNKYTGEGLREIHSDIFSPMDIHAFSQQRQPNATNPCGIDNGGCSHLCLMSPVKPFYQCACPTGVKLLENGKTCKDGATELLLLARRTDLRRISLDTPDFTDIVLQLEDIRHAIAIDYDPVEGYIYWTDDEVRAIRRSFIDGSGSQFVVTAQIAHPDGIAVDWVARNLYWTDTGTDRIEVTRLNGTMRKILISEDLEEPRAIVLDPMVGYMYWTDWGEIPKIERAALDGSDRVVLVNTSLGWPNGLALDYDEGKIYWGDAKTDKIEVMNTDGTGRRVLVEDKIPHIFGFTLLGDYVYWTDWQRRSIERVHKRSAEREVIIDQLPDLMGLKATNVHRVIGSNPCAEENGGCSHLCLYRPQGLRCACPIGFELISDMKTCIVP

Chain of DKK1 (O94907 32-266): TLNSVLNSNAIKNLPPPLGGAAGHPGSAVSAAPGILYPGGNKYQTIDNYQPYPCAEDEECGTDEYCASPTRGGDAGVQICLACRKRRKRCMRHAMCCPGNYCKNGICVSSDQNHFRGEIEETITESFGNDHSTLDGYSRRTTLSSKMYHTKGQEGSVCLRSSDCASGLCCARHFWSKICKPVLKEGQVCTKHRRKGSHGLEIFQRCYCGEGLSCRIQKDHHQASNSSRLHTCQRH

Kd: 64 nM
Substance: DKK1 (from UniProt O94907)
